Target: PU.1 DNA-binding domain (PU.1^DBD, PU.1 168-270) (human, UniProt P17947 168-270)
Assay: NMR titration; 1H,15N-HSQC of 50 uM 15N PU.1 168-270 in 50 mM sodium phosphate pH 6.5, 25 C, titrated with unlabeled EWS^LCD (2 mM stock in 20 mM CAPS pH 11) to 12.5, 25, 50, 100 and 150 uM (~3:1)
Settings: both partners purified

binding result: binds
B1: EWS low-complexity domain (EWS^LCD, EWS 1-264) (domain or fragment)
chain: MASTDYSTYSQAAAQQGYSAYTAQPTQGYAQTTQAYGQQSYGTYGQPTDVSYTQAQTTATYGQTAYATSYGQPPTGYTTPTAPQAYSQPVQGYGTGAYDTTTATVTTTQASYAAQSAYGTQPAYPAYGQQPAATAPTRPQDGNKPTETSQPQSSTGGYNQPSLGYGQSNYSYPQVPGSYPMQPVTAPPSYPPTSYSSTQPTSYDQSSYSQQNTYGQPSSYGQQSSYGQQSSYGQQPPTSYPPQTGSYSQAPSQYSQQSSSYGQQ
notes: In the fluorescence microscopy 1% of the EWS^LCD carried DyLight 650 or 488, attached through a dye-labelled KLPETGG peptide with sortase; also called EWS^LCD,650; EWS^LCD,488; source: E. coli BL21 Star (DE3) or BL21 (DE3) pLysS, purified (IMAC or cation exchange, TEV cleavage, SEC; 20 mM CAPS pH 11); not shown: His tag (6 or 8 x), N-terminal, cleaved

— paper doi:10.1101/2022.06.04.494830, “The oncogenic fusion protein EWS-FLI1 promotes premature ageing of biomolecular condensates by catalyzing fibril formation” (bioRxiv, 2022)
